# According to the supplement of paper PMC9170038:
# System: MS2 coat protein
# Experiment: apparent KD of MS2 coat protein; designed switch direction (-1 OFF switch, 1 ON switch): 1; higher = weaker reporter binding
# Method in brief: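 The apparent KD reported per design is the median over clusters of curve fits to normalised cluster fluorescence. The RNA switches were transcribed on Illumina chips by stalled E. coli RNA polymerase. SNAP-549-labelled MS2 coat protein was titrated from 0.7 or 1.5 nM, doubling up to 3 µM, in Tris-HCl pH 7.5 buffer containing KCl, MgCl2, BSA, DTT, tRNA and Tween-20, with no input, 200 uM small-molecule ligand, or an oligonucleotide input.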
# [1] = Eterna round: R95, input ligand: FMN 200 uM
# [2] = Eterna round: R95, input ligand: microRNA oligo, concentration not stated
# [3] = Eterna round: R95, input ligand: none
# [4] = input ligand: microRNA oligo, concentration not stated
Sequence,apparent KD of MS2 coat protein [1],apparent KD of MS2 coat protein [2],apparent KD of MS2 coat protein [3],apparent KD of MS2 coat protein [4],apparent KD of MS2 coat protein (input ligand: FMN 200 uM),apparent KD of MS2 coat protein (input ligand: none)
UACAAUCUAUCUGAGGAUAUCAUGAAUAAAACAUGAGGAUCACCCAUGUGCAGGAAAACUGCAUAUGAGAAGGCAGAUAGAUUGU [salish99_ss2_r3_067] (puzzle: Same State 2),0.0459 µM,0.181 µM,0.556 µM,,,
"UGUUAGUAGACAGGAUAUUGAAUGUUAAGUAUUAACAUGAGGAUCACCCAUGUAUUUGAUUGGUACAAGAAGGGUCAUGUUUGU [JR_SSNG2_Sub014] (Eterna round: R96, puzzle: Same State NG 2)",,,,0.29 µM,,
AUAAGGCAAGCUUUUUUCUCGUAGUAUAAACAUGAGGAUCACCCAUGUGCCCACCCUGGAUCUUUGGAUCGCAGAAC [Vetera] (puzzle: Sensor for hsa-mir-208a),0.0268 µM,0.0165 µM,0.0263 µM,,,
"AGGCCACCGGGAGGAUAUGGCACCUAUAUGGUGCCAGAAGGCUCAACAUGAGGAUCACCCAUGUGGGUGGGUUCUAAUGAACAA [Fiskers NG1 - 1] (Eterna round: R96, puzzle: Same State NG 1)",,,,0.0417 µM,0.0691 µM,0.0467 µM
"GGUCUAGUUACAGGAUAUGCUAUCCUUUGGGUAGCAGAAGGGUGGUAACAUGAGGAUCACCCAUGUGGGCCAGGGCGUGAGCCC [JL SSNG1 1.00] (Eterna round: R96, puzzle: Same State NG 1)",,,,0.981 µM,0.77 µM,1.26 µM
"AUUAGACAUGAGGAUCACCCAUGUAGGCAGUCAUGAGGAUAUGGACAAGGUGCUCAAGGUCCAGAAGGCAUACGCC [Maxeus] (Eterna round: R96, puzzle: Same State 1)",,,,0.0283 µM,0.0122 µM,0.028 µM
CGUCCGGCCUGUGCUGGCCGGUUGCUUGUACAUGAGGAUCACCCAUGUUCAUGUGCAGGCUUUUUGCUCGUCUUGUG [salish99_mir208a_015] (puzzle: Sensor for hsa-mir-208a),0.0383 µM,0.0311 µM,0.0458 µM,,,
"CGCAUCCUUGUUACAUGAGGAUCACCCAUGUUUUCGAGUGGAGAGGAUAUCGUAACAGUAUUUUUCGAGAAGGCUCUAUAGUUU [JR_SSNG3_Sub080] (Eterna round: R96, puzzle: Same State NG 3)",,,,0.0376 µM,0.0417 µM,0.0569 µM
GAGUUUGAACUACAGGAUAUAUAGCAGAUGACAUGAGGAUCACCCAUGUAAGAGAAAGGAGGGAAAUAGAAGGGUAUGGGAGGUG [JR_SS2_Sub035] (puzzle: Same State 2),0.0337 µM,0.0204 µM,0.0243 µM,,,
"GUAGCAUACCGAGGAUAUUCAUAUAUACAUGAGGAUCACCCAUGUUAAAAUAGGCGAAAGCCUUGGGAGAAGGCGGAAUGCUAC [Xeonanis - 20 Mod67] (Eterna round: R96, puzzle: Same State NG 2)",,,,0.0114 µM,0.00945 µM,0.015 µM
"CACAUGAGGAUCACCCAUGUGAGGCGGCAAUAAAACCGCGCACAGGAUAUAGCGCUAUAAAUGCACUAGAAGGGUGAUUAGAAC [Zabeceis] (Eterna round: R96, puzzle: Same State NG 3)",,,,0.0696 µM,1.68 µM,0.0364 µM
AGUCCGGCCUGAGCUGGACUGAAGCAUGUACAUGAGGAUCACCCAUGUUCAUGUGCAGGCUUUUUGCUCGUCUUGUG [JL-shm-2.04 JL mod] (puzzle: Sensor for hsa-mir-208a),0.0977 µM,0.0134 µM,0.124 µM,,,
AUAAGGCAAGCUUUUUUCUCGUAGUGUAAACAUGAGGAUCACCCAUGUGCUCGCCCUGGAUCUUUGGAUCGCAGAAA [Geedbigexe] (puzzle: Sensor for hsa-mir-208a),0.0467 µM,0.0186 µM,0.0453 µM,,,
AUAAAACAUGAGGAUCACCCAUGUCAACAAAGUCGAGGAUAUGGGCAAAUAAAAUAUGAACCAGAAGGCGAAUAAU [salish99_ss1_r3_019] (puzzle: Same State 1),0.0358 µM,0.221 µM,0.31 µM,,,
"UUUGCAUGACGAGGAUAUCAUUUAUUUCUUGAUUGAGAAGGCGUUCUUUUUCCUACCUAACAUGAGGAUCACCCAUGUGACAGU [JR_SSNG1_Sub049] (Eterna round: R96, puzzle: Same State NG 1)",,,,0.012 µM,0.0127 µM,0.014 µM
"AUAUGAGAAGCAGGAUAUGCGGAGAAGAAAGAAGCAGAAGGGCUUAUGGGACAACAUGAGGAUCACCCAUGUUCUCUGCGAUGA [AK SSNG1-V2-3.1] (Eterna round: R96, puzzle: Same State NG 1)",,,,0.148 µM,0.0606 µM,0.135 µM

Sequence,apparent KD of MS2 coat protein [1],apparent KD of MS2 coat protein [2],apparent KD of MS2 coat protein [3],apparent KD of MS2 coat protein [4],apparent KD of MS2 coat protein (input ligand: FMN 200 uM),apparent KD of MS2 coat protein (input ligand: none)
"AACAAUCUAUCUGAGGAUAUUAUGAAAUAAACAUGAGGAUCACCCAUGUGCAGGAAAACUGCAUAUGAGAAGGCAGAUAGAUUGA [salish99_ss2_r3_027] (Eterna round: R96, puzzle: Same State 2)",,,,0.274 µM,,
"GGGAAACCUCAAGGAUAUGCUACCGUUUCGGUAGCAGAAGGUGAUCACAUGAGGAUCACCCAUGUAUGCAUGCGUGAGCGUGCU [JL SSNG1 3.57] (Eterna round: R96, puzzle: Same State NG 1)",,,,0.0713 µM,0.0426 µM,0.047 µM
"UUAAUUAAUUAAUUAUACAUGAGGAUCACCCAUGUAAGUGAUCAGGAUAUCAGCUCGUGUAGAGCUGAGAAGGGAUACAUGUAA [SSNG3/12-A4] (Eterna round: R96, puzzle: Same State NG 3)",,,,0.147 µM,,
"GUUACAUGAGGAUCACCCAUGUAUGUGUGGGAGUAAGUGUCUUAGGAUAUCUAUUAAUUAAAUUAAGAGAAGGAAGAUUGUUGU [JMF's solution 14] (Eterna round: R96, puzzle: Same State NG 3)",,,,0.0837 µM,0.127 µM,0.112 µM
"CAGGCGCAACAUGAGGAUCACCCAUGUGCUAACUUAACAGGGCAGGAUAUGGAAGCUCUAUGUCUCCAGAAGGGCUGGCGGAGC [Eternabot solution 38] (Eterna round: R96, puzzle: Same State NG 3)",,,,0.0326 µM,0.0482 µM,0.0533 µM
AAGUAGGAGUUACAGGAUAUAUGGAGAAGGACAUGAGGAUCACCCAUGUGAGAGAUGAGAGGAAGAUAGAAGGGUAAGGGAGUAA [JR_SS2_Sub026] (puzzle: Same State 2),0.044 µM,0.0414 µM,0.0772 µM,,,
"UCAGAGGCGCUAGGAUAUCUCUCCGAGAAGCAGAGAGAAGGAGUGCGGAACCCAAGACCUACAUGAGGAUCACCCAUGUCUCAA [Eternabot solution 27] (Eterna round: R96, puzzle: Same State NG 1)",,,,0.0229 µM,0.0228 µM,0.0387 µM
"AGCUAUCGAAAACGAUAGCAUAAGCUUGGACAUGAGGAUCACCCAUGUCAUGUACAAGCUUUUUGCUCGUCUUAAAA [JL zipper 29] (Eterna round: R96, puzzle: Sensor for hsa-mir-208a)",,,,0.0119 µM,0.0323 µM,0.0345 µM
"GCCGCGAAGCGAGGAUAUACUGUCCGAGAGCCGCAAACAUGAGGAUCACCCAUGUAGGUGAGACCGUAGAAGGCGUAAGCGCAA [Eternabot solution 19] (Eterna round: R96, puzzle: Same State NG 2)",,,,0.235 µM,0.046 µM,0.331 µM
"AGUCCGGCCUGAGCUGGACUGAAGCAUGUACAUGAGGAUCACCCAUGUUCAUGUGCAGGCUUUUUGCUCGUCUUGUG [JL-shm-2.04 JL mod] (Eterna round: R96, puzzle: Sensor for hsa-mir-208a)",,,,0.0126 µM,0.115 µM,0.103 µM
AAUUAUUAACAUGAGGAUCACCCAUGUGUUUUUUGCUCGUCAUGUAUUAUUAUUAUUAUUAUUAUUAUUAUUAUUAA [my second RNA] (puzzle: Sensor for hsa-mir-208a version 2),0.0419 µM,0.0188 µM,0.0524 µM,,,
"GGAGCCGGCCUAGGAUAUUUCAUAAAUUUACAUGAGGAUCACCCAUGUAGGCCAGAAGGCCUUGGGAAGAAGGAGGUCGGCUCC [Loop Effect - U27,U28,U29] (Eterna round: R96, puzzle: Same State NG 2)",,,,0.0275 µM,0.0113 µM,0.0405 µM
"UGAAUAGUUACAGGAUAUGAGCCGUAAAUUGGGUCAGAAGGGUGGGUGUUUUGCGCUGUGUGUUACAUGAGGAUCACCCAUGUU [SameState NG1 #32] (Eterna round: R96, puzzle: Same State NG 1)",,,,0.0867 µM,0.206 µM,0.137 µM
CGGGUACAUGAGGAUCACCCAUGUUGGAGUAAUGCAGGAUAUGUGGGACGAGGUUAUAAAACAGAAGGGCAAGGAG [JR_SS!_Sub011] (puzzle: Same State 1),0.0535 µM,0.0629 µM,0.0672 µM,,,
CCGAUGUGGGUACAGGAUAUGUGGGCCUCCACAUGAGGAUCACCCAUGUCGGAGGCAAUGCGGCUACAGAAGGGUGCGAGCUCGA [Tileorat] (puzzle: Same State 2),0.0141 µM,0.0109 µM,0.0135 µM,,,
